Test results reported in paper PMC9381478, “A context-dependent and disordered ubiquitin-binding motif” (Cellular and Molecular Life Sciences: CMLS, 2022).
Like-named read-outs stand apart in the source and are kept apart here. One block for each substance: values may come before it.

What was measured:
[1] = biological target: S. pombe ubiquitin with an N-terminal 6xhistidine-tag, TEV-cleavage site and an N-terminal free cysteine (S. pombe) (UniProt P0CG72); assay: NMR titration; 100 µM 15N-ubiquitin, unlabelled peptide or protein added or titrated (peptides to 1 mM, WT Dss1 peptide to 5 mM); 20 mM NaH2PO4, 150 mM NaCl, 5 mM TCEP, pH 7.5; CSPs of 1H-15N-HSQC, global fit to a one-site model
SUMO (Homo sapiens) [2] = biological target: SUMO (Homo sapiens) (UniProt P63165); details: cited from earlier work
Chain of SUMO (Homo sapiens) (P63165 2-97): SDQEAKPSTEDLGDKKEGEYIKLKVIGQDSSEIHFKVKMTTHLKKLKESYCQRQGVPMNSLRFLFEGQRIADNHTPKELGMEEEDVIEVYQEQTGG

SUMO (Homo sapiens) [3] = biological target: SUMO (Homo sapiens) (UniProt P63165); details: cited from earlier work; remark: listed apart in the source
ubiquitin [4] = biological target: ubiquitin (UniProt P0CG48); details: cited from earlier work
ubiquitin [5] = biological target: ubiquitin (UniProt P0CG48); details: cited from earlier work; remark: listed apart in the source

Chain of RABEX5 UIM (Q9UJ41 48-74): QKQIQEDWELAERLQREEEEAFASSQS
Chain of Vps27 UIM (P40343 258-277): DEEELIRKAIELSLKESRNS

Kd [1]: 25 µM
Substance: Dss1 DMD (from UniProt O14140 1-71) (natural protein)

Kd [1]: 300 µM
Substance: Dss1 DWD (from UniProt O14140 1-71) (natural protein)

Substance: PIASX (from UniProt O75928)
Kd (SUMO (Homo sapiens) [2]): 1 µM

Substance: PML-P (from UniProt P29590)
Kd (SUMO (Homo sapiens) [3]): 100 µM

Substance: RABEX5 UIM (from UniProt Q9UJ41)
Kd (ubiquitin [4]): 100 µM

Kd [1]: 3100 µM
Substance: Spd1 peptide (15-mer with the DisUBM of S. pombe Spd1)

Substance: Vps27 UIM (from UniProt P40343)
Kd (ubiquitin [5]): 20 µM
